Data from IntAct's records for PubMed 12529446.

Target: gef1_schpo gef1 (UniProt Q09763)
Sequence (Q09763 whole entry): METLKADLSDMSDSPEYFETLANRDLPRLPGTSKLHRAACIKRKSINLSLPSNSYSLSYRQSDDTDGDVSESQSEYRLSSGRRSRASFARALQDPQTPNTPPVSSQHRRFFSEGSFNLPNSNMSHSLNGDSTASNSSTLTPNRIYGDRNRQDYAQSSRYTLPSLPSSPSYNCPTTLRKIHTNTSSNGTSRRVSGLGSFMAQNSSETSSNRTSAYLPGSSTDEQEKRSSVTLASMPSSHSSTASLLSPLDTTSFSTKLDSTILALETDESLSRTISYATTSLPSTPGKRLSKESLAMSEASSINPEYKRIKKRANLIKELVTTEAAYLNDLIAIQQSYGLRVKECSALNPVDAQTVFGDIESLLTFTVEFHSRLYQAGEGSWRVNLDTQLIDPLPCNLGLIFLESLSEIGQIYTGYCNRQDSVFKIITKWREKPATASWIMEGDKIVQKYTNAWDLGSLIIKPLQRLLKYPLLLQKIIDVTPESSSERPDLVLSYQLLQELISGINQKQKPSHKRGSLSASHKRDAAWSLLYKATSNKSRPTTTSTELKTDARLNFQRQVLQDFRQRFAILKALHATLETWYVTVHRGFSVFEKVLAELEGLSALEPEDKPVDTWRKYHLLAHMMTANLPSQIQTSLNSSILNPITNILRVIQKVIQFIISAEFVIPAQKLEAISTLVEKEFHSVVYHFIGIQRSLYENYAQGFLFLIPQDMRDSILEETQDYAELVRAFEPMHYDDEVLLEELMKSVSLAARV

Sequence of Cell division control protein 42 homolog (Schizosaccharomyces pombe (strain ATCC 38366 / 972)), Q01112 D118A (Q01112 whole entry D118A): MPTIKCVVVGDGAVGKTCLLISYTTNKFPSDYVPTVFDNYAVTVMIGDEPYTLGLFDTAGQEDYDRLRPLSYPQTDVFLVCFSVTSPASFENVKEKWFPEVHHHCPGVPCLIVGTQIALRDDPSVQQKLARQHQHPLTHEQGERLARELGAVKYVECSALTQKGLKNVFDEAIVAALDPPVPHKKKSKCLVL
Sequence of Cell division control protein 42 homolog (Schizosaccharomyces pombe (strain ATCC 38366 / 972)), Q01112 T17N (Q01112 whole entry T17N): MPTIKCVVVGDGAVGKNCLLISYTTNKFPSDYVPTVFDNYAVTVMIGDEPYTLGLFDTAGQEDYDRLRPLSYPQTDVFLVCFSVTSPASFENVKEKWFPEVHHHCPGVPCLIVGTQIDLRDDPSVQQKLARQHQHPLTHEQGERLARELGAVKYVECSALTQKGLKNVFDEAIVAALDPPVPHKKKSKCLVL

effect of a mutation on the interaction	Substance
increasing interaction	Cell division control protein 42 homolog (Schizosaccharomyces pombe (strain ATCC 38366 / 972)), Q01112 T17N
increasing interaction	Cell division control protein 42 homolog (Schizosaccharomyces pombe (strain ATCC 38366 / 972)), Q01112 D118A
